We go through two molecules from patent US20150191542A1 (INNATE PHARMA S A, published 2015).

Experiment [1] has as its target T1, MICA*001 extracellular domain α3 recombinant protein (human, UniProt Q29983 205-297).
T1 construct: also called MICA extracellular domain α3 recombinant protein; α3 domain of MICA
T1 sequence: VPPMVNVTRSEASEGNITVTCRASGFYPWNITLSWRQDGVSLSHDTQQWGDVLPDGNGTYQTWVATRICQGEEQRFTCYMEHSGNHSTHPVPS
Put plainly: ELISA, 3 µg/ml recombinant protein coated. Here is the method:
3 μg/ml of the indicated MICA recombinant proteins were coated overnight in 96-well plates in PBS 1× at 4° C. All subsequent steps were performed at room temperature. After washes with PBS 1×/Tween 0.05%, plates were saturated for an additional 2 hours in PBS 1×/BSA 1%. Two additional washes were performed prior adding the tested anti-MICA mAb in PBS 1×/BSA 1% for 2 hours. Antibodies were washed and a horseradish peroxidase conjugated goat polyclonal anti-mouse IgG (GAM-HRP) in PBS 1×/BSA 1% was added for 1 hour. Final washing steps were performed and TMB substrate was added to reveal the ELISA (5 to 20 min in the dark) and 1M HCl was added to stop the enzymatic reaction. O.D. was measured at 450 nm.
9C10 binds to MICA extracellular domain recombinant-protein but not MICA extracellular domain α3 recombinant protein. Antibody 16A8, however, bound to both MICA extracellular domain recombinant protein […] MICA extracellular domain α3 recombinant protein. Therefore, it can be concluded from this ELISA experiment that the binding site on MICA of 9C10 antibodies includes the α1 and/or α2 domains while antibody 16A8 binds to MICA within the α3 domain. […] BAMO1 is a commercially available anti-MICA specific for α1α2 domain and BAMO3 is a commercially available anti-MICA specific for α3 domain.

Experiment [2] deals with T2, recombinant human MICA extracellular domain recombinant-Fc protein (MICA*019 allele) (human, UniProt Q29983 24-297).
T2 construct: Bought from R&D Systems; also called MICA*019-Fc; MICA-Fc; not shown: Fc part of the bought fusion protein (R&D Systems)
T2 chain: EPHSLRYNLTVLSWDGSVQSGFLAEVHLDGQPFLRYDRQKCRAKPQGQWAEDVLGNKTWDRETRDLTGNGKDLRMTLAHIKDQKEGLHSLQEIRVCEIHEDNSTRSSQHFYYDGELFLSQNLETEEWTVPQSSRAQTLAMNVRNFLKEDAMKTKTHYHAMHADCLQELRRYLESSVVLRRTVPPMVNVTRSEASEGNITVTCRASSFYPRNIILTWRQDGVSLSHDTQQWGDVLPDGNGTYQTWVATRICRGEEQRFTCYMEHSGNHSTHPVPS
Put plainly: SPR Biacore T100, biotinylated antibody captured on CAP chip, MICA*019-Fc injected; bivalent mean KD at pH 7.4; on MICA*019-Fc; bivalent, pH 7.4. The procedure: The binding of 9C10, 20C6 and 16A8 to either recombinant human MICA extracellular domain recombinant protein monomers or dimers (MICA*019 allele-Fc protein or MICA*001-His protein) as well as other NKG2D ligands MICB and ULBP1-2 was analyzed by Surface Plasmon Resonance (SPR) using a Biacore T100 apparatus to obtain monovalent and bivalent affinity, respectively. Biotinylated anti-MICA antibodies were injected at a constant rate of 10 μl/min over the Sensor Chip CAP flow-cells comprising Biotin CAPture Reagent. MICA-Fc or MICA-His protein, MICB-Fc, ULBP1-Fc or ULBP2-Fc protein is then injected successively (range of concentrations between 0.01-100 nM), with regeneration between injections, and in increasing order over two flowcells simultaneously. Curves are fitted using Biacore T100 Evaluation software.
Antibody 16A8 bound MICA and MICB but not ULBP1 or ULBP2. Results are shown in FIGS. 1A, 1B, 1C and 1D for MICA, MICB, ULBP1 and ULPB2 respectively.

The target of experiment [3] is T3, MICA*008 expressed on C1R transfectant cells (human, UniProt Q29983 24-297, Glycosylated on cells; the letters do not carry this.).
T3 construct: also called C1R-MICA*008; C1R-MICA*08
T3 chain: T2 chain with S175G
Put plainly: flow cytometry, MFI against antibody concentration on C1R-MICA*08 cells. Here is the method:
(§1) The binding of antibodies obtained from the first and second immunization series (including 9C10, 20C6 and 16A8) were tested for binding to MICA-expressing CR1 transfectant cells C1R-MICA*001, C1R-MICA*004, C1R-MICA*007 and C1R-MICA*008 (Pr. A. Steinle, Eberhard-Karls University Tuebingen, Germany) described in Salih et al. (2003) Blood 102(4): […]. Binding was analyzed by flow cytometry.
(§2) Cells were harvested and stained in PBS 1×/BSA 0,2%/EDTA 2 mM buffer during 30 minutes at 4° C. using a dose-range of the anti-MICA mAbs. After two washes in staining buffer, cells were stained for 30 min at 4° C. with goat anti-mouse (H+L)-PE polyclonal antibodies (1/200). After two washes, stainings were acquired on a BD FACS Canto II and analyzed using the FlowJo software.

Experiment [4] addresses T4, MICA*001 expressed on transfected cells (human).
T4 construct: the cells carry the complete allele; also called C1R-MICA*001; C1R-MICA*01
T4 chain: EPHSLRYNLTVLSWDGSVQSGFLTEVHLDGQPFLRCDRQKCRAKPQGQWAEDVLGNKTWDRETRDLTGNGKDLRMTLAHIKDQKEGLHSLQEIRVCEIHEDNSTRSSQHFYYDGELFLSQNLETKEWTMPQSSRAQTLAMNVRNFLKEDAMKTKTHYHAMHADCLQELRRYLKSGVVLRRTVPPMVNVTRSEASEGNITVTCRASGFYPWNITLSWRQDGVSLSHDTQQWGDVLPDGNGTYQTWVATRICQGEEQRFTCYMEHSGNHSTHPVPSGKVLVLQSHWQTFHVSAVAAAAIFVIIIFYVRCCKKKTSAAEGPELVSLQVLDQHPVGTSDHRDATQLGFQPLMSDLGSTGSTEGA
Briefly: flow cytometry, MFI against antibody concentration on C1R-MICA*01 cells. The procedure: as §1, §2

Where a chain is given by its changes, count along the chain named.

B1: antibody 9C10 (antibody, V domains shown)
VH: QVQLQQPGAELVRPGTSVNLSCKASGYSFTRYWMNWVKQRPGQGLEWIGMIHPSDSETRLNQKFKDKATLTVDKSSSTAYMQLSSPTSEDSAVYYCGYGNFFYVMDYWGQGTSVTVSS
VL: DILLTQSPAILSVSPGERVSFSCRASQSIGTSIHWYQQRTNGSPRLLIKFASESISGIPSRFSGSGSGTDFTLNINSVESEDIADYYCQQSNFWPFTFGSGTKLEVK
modifications: Biotinylated when captured in the SPR assays (9C10-Biot); the sites are not given.
notes: Murine hybridoma antibody of IgG2b isotype as tested; also called 9C10-Biot
As for B1, the binding result in experiment [1] is “no binding”. For the same molecule, in experiment [2], the Kd was 0.62 pM. For the same molecule, the “EC50 (read off the curve)” value in experiment [3] is approximately 0.2 µg/mL.

B2: antibody 16A8 (antibody, V domains shown)
VH: EVQLVESGGGLVKPGGSLKLSCAASGFTFSRYAMSWVRQTPEKRLEWVATIFSGGSYTYYPDSVKGRFTISRDNANNTLYLQMSSLKAEDTAMYFCARPNWERTFDYWGQGTTLTVSS
VL: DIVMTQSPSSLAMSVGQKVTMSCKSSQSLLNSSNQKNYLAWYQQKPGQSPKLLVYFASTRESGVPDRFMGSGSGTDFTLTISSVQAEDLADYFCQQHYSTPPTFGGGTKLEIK
notes: Murine hybridoma antibody of IgG2a isotype as tested; also called 16A8-Biot
For B2, in experiment [4], the 50% effective concentration (EC50 (read off the curve)) was approximately 0.3 µg/mL.
